Experimental findings from patent US20260001928A1 (CORTERIA PHARMACEUTICALS, priority 2022, published 2026) are described below.

In experiment [1] the target is T1, CRF1R (corticotropin-releasing factor receptor 1), on the CRF1R-overexpression CHO-K1 cell line clone 2 (UniProt P34998 24-415, limits assumed).
T1 sequence (looked up): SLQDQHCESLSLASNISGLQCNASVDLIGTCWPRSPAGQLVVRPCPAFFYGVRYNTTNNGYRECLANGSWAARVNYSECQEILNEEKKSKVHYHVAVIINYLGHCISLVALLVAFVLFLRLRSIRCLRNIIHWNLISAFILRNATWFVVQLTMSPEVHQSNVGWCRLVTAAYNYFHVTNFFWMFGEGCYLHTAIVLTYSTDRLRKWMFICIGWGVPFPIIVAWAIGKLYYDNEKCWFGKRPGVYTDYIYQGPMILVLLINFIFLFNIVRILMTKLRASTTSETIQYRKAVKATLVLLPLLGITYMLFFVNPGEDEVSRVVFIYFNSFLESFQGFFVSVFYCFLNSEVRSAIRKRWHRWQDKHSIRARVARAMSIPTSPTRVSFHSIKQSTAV
Briefly: cell-based or functional assay.

The target in experiment [2] is Rat CRF2 a (corticotropin-releasing factor receptor 2), on the A7R5 rat aortic smooth muscle cell line (rat, UniProt P47866 20-411). Briefly: cell-based or functional assay.

*1 amine or outer side, *2 acyl side, *3 side chain or, on linkers, in order; H or OH if unused. Where no end group is shown, it is not given here. Side-chain parts run from the residue outwards. [ ]: non-standard residue; d: D form. The star is where a group is joined. C20 diacid = O=C(O)CCCCCCCCCCCCCCCCCCC(=O)*; γGlu = O=C(O)[C@H](CCC(=O)[*:2])N[*:1]; NMeI = CC[C@H](C)[C@H](NC)C(=O)O; Aib = CC(C)(N)C(=O)O A value given as a limit tells only on which side of the number the result lay.

Chain of Rat CRF2 a (corticotropin-releasing factor receptor 2), on the A7R5 rat aortic smooth muscle cell line (P47866 20-411): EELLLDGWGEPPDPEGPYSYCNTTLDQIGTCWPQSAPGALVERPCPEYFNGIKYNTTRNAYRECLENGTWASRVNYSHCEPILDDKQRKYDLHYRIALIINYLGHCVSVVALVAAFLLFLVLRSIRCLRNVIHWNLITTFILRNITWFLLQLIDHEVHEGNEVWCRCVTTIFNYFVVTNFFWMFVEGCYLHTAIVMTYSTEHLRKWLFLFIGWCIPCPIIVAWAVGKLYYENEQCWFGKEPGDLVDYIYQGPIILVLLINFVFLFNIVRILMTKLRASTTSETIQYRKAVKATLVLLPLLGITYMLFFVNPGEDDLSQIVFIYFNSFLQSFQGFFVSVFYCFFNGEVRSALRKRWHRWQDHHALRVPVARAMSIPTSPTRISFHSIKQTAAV

B1: peptide of SEQ ID NO: 244 (peptide)
peptide: Ac-IVLSLD[dV]PIKLK([γGlu-γGlu-C20 diacid])KILLEQEKQKAQREQAETN[Aib]QILAQV-NH2
SMILES: CC[C@H](C)[C@H](NC(C)=O)C(=O)N[C@H](C(=O)N[C@@H](CC(C)C)C(=O)N[C@@H](CO)C(=O)N[C@@H](CC(C)C)C(=O)N[C@@H](CC(=O)O)C(=O)N[C@@H](C(=O)N1CCC[C@H]1C(=O)N[C@H](C(=O)N[C@@H](CCCCN)C(=O)N[C@@H](CC(C)C)C(=O)N[C@@H](CCCCNC(=O)CC[C@H](NC(=O)CC[C@H](NC(=O)CCCCCCCCCCCCCCCCCCC(=O)O)C(=O)O)C(=O)O)C(=O)N[C@@H](CCCCN)C(=O)N[C@H](C(=O)N[C@@H](CC(C)C)C(=O)N[C@@H](CC(C)C)C(=O)N[C@@H](CCC(=O)O)C(=O)N[C@@H](CCC(N)=O)C(=O)N[C@@H](CCC(=O)O)C(=O)N[C@@H](CCCCN)C(=O)N[C@@H](CCC(N)=O)C(=O)N[C@@H](CCCCN)C(=O)N[C@@H](C)C(=O)N[C@@H](CCC(N)=O)C(=O)N[C@@H](CCCNC(=N)N)C(=O)N[C@@H](CCC(=O)O)C(=O)N[C@@H](CCC(N)=O)C(=O)N[C@@H](C)C(=O)N[C@@H](CCC(=O)O)C(=O)N[C@H](C(=O)N[C@@H](CC(N)=O)C(=O)NC(C)(C)C(=O)N[C@@H](CCC(N)=O)C(=O)N[C@H](C(=O)N[C@@H](CC(C)C)C(=O)N[C@@H](C)C(=O)N[C@@H](CCC(N)=O)C(=O)N[C@H](C(N)=O)C(C)C)[C@@H](C)CC)[C@@H](C)O)[C@@H](C)CC)[C@@H](C)CC)C(C)C)C(C)C
As to B1, in experiment [1], the “EC50 [nM] (cAMP, CRF1R-overexpression CHO-K1 cells)” value was above 250 nM and the “Emax (% I) (cAMP, 100% = Sauvagine at 100 nM)” value (from here on “Emax (% I)”) is 8 % I. The “EC50 [nM] 0% HSA (cAMP, A7R5 rat aortic smooth muscle cells)” value (“EC50 [nM] 0% HSA” for short) in experiment [2] is 1.77 nM.

B2: peptide of SEQ ID NO: 242 (peptide)
peptide: [NMeI]VLSLD[dV]PIKLK([γGlu-γGlu-C20 diacid])KILLEQEKQKEQREQAETN[Aib]QILAQV-NH2
modifications: N-terminus assumed
SMILES: CC[C@H](C)[C@H](NC)C(=O)N[C@H](C(=O)N[C@@H](CC(C)C)C(=O)N[C@@H](CO)C(=O)N[C@@H](CC(C)C)C(=O)N[C@@H](CC(=O)O)C(=O)N[C@@H](C(=O)N1CCC[C@H]1C(=O)N[C@H](C(=O)N[C@@H](CCCCN)C(=O)N[C@@H](CC(C)C)C(=O)N[C@@H](CCCCNC(=O)CC[C@H](NC(=O)CC[C@H](NC(=O)CCCCCCCCCCCCCCCCCCC(=O)O)C(=O)O)C(=O)O)C(=O)N[C@@H](CCCCN)C(=O)N[C@H](C(=O)N[C@@H](CC(C)C)C(=O)N[C@@H](CC(C)C)C(=O)N[C@@H](CCC(=O)O)C(=O)N[C@@H](CCC(N)=O)C(=O)N[C@@H](CCC(=O)O)C(=O)N[C@@H](CCCCN)C(=O)N[C@@H](CCC(N)=O)C(=O)N[C@@H](CCCCN)C(=O)N[C@@H](CCC(=O)O)C(=O)N[C@@H](CCC(N)=O)C(=O)N[C@@H](CCCNC(=N)N)C(=O)N[C@@H](CCC(=O)O)C(=O)N[C@@H](CCC(N)=O)C(=O)N[C@@H](C)C(=O)N[C@@H](CCC(=O)O)C(=O)N[C@H](C(=O)N[C@@H](CC(N)=O)C(=O)NC(C)(C)C(=O)N[C@@H](CCC(N)=O)C(=O)N[C@H](C(=O)N[C@@H](CC(C)C)C(=O)N[C@@H](C)C(=O)N[C@@H](CCC(N)=O)C(=O)N[C@H](C(N)=O)C(C)C)[C@@H](C)CC)[C@@H](C)O)[C@@H](C)CC)[C@@H](C)CC)C(C)C)C(C)C
For B2, in experiment [1], the “EC50 [nM] (cAMP, CRF1R-overexpression CHO-K1 cells)” value is above 250 nM and the “Emax (% I)” value amounted to 6 % I. Moreover, the “EC50 [nM] 0% HSA” value in experiment [2] was 0.4 nM.

B3: peptide of SEQ ID NO: 243 (peptide)
peptide: Ac-IVLSLD[dV]PIKLK([γGlu-γGlu-C20 diacid])KILLEQEKQKKQREQAETN[Aib]QILAQV-NH2
SMILES: CC[C@H](C)[C@H](NC(C)=O)C(=O)N[C@H](C(=O)N[C@@H](CC(C)C)C(=O)N[C@@H](CO)C(=O)N[C@@H](CC(C)C)C(=O)N[C@@H](CC(=O)O)C(=O)N[C@@H](C(=O)N1CCC[C@H]1C(=O)N[C@H](C(=O)N[C@@H](CCCCN)C(=O)N[C@@H](CC(C)C)C(=O)N[C@@H](CCCCNC(=O)CC[C@H](NC(=O)CC[C@H](NC(=O)CCCCCCCCCCCCCCCCCCC(=O)O)C(=O)O)C(=O)O)C(=O)N[C@@H](CCCCN)C(=O)N[C@H](C(=O)N[C@@H](CC(C)C)C(=O)N[C@@H](CC(C)C)C(=O)N[C@@H](CCC(=O)O)C(=O)N[C@@H](CCC(N)=O)C(=O)N[C@@H](CCC(=O)O)C(=O)N[C@@H](CCCCN)C(=O)N[C@@H](CCC(N)=O)C(=O)N[C@@H](CCCCN)C(=O)N[C@@H](CCCCN)C(=O)N[C@@H](CCC(N)=O)C(=O)N[C@@H](CCCNC(=N)N)C(=O)N[C@@H](CCC(=O)O)C(=O)N[C@@H](CCC(N)=O)C(=O)N[C@@H](C)C(=O)N[C@@H](CCC(=O)O)C(=O)N[C@H](C(=O)N[C@@H](CC(N)=O)C(=O)NC(C)(C)C(=O)N[C@@H](CCC(N)=O)C(=O)N[C@H](C(=O)N[C@@H](CC(C)C)C(=O)N[C@@H](C)C(=O)N[C@@H](CCC(N)=O)C(=O)N[C@H](C(N)=O)C(C)C)[C@@H](C)CC)[C@@H](C)O)[C@@H](C)CC)[C@@H](C)CC)C(C)C)C(C)C
Consider B3, for which, in experiment [1], the “EC50 [nM] (cAMP, CRF1R-overexpression CHO-K1 cells)” value is above 250 nM and the “Emax (% I)” value turned out to be 8 % I. The “EC50 [nM] 0% HSA” value in experiment [2] is 0.09 nM.

B4: peptide of SEQ ID NO: 241 (peptide)
peptide: Ac-IVLSLD[dV]PIKLK([γGlu-γGlu-C20 diacid])KILLEQEKQKEQREQAETN[Aib]QILAQV-NH2
SMILES: CC[C@H](C)[C@H](NC(C)=O)C(=O)N[C@H](C(=O)N[C@@H](CC(C)C)C(=O)N[C@@H](CO)C(=O)N[C@@H](CC(C)C)C(=O)N[C@@H](CC(=O)O)C(=O)N[C@@H](C(=O)N1CCC[C@H]1C(=O)N[C@H](C(=O)N[C@@H](CCCCN)C(=O)N[C@@H](CC(C)C)C(=O)N[C@@H](CCCCNC(=O)CC[C@H](NC(=O)CC[C@H](NC(=O)CCCCCCCCCCCCCCCCCCC(=O)O)C(=O)O)C(=O)O)C(=O)N[C@@H](CCCCN)C(=O)N[C@H](C(=O)N[C@@H](CC(C)C)C(=O)N[C@@H](CC(C)C)C(=O)N[C@@H](CCC(=O)O)C(=O)N[C@@H](CCC(N)=O)C(=O)N[C@@H](CCC(=O)O)C(=O)N[C@@H](CCCCN)C(=O)N[C@@H](CCC(N)=O)C(=O)N[C@@H](CCCCN)C(=O)N[C@@H](CCC(=O)O)C(=O)N[C@@H](CCC(N)=O)C(=O)N[C@@H](CCCNC(=N)N)C(=O)N[C@@H](CCC(=O)O)C(=O)N[C@@H](CCC(N)=O)C(=O)N[C@@H](C)C(=O)N[C@@H](CCC(=O)O)C(=O)N[C@H](C(=O)N[C@@H](CC(N)=O)C(=O)NC(C)(C)C(=O)N[C@@H](CCC(N)=O)C(=O)N[C@H](C(=O)N[C@@H](CC(C)C)C(=O)N[C@@H](C)C(=O)N[C@@H](CCC(N)=O)C(=O)N[C@H](C(N)=O)C(C)C)[C@@H](C)CC)[C@@H](C)O)[C@@H](C)CC)[C@@H](C)CC)C(C)C)C(C)C
Consider B4, for which, in experiment [1], the “EC50 [nM] (cAMP, CRF1R-overexpression CHO-K1 cells)” value is above 250 nM and the “Emax (% I)” value worked out at 7 % I. Also, the “EC50 [nM] 0% HSA” value in experiment [2] came to 3.52 nM.
